Results reported in PMC9440123, “Rtt105 regulates RPA function by configurationally stapling the flexible domains” (Nature Communications, 2022).

What was measured:
[1] = target: T1, RPA (RPA70/RPA32/RPA14);Rtt105 (Saccharomyces cerevisiae;Saccharomyces …, UniProt P22336;P26754;P26755;P40063 1-621;1-273;1-122;1-208, |); assay: fluorescence anisotropy; Rtt105 1:1; 5 mM MgCl2; stoichiometric, apparent Kd; EMSA: 25 mM Tris-Cl pH 7.5, 200 mM NaCl, 5 mM MgCl2, 5% glycerol, 0.05% Tween-20, 25 C; anisotropy/FRET: 30 mM HEPES pH 7.8, 100 mM KCl, 6% glycerol, 5 mM MgCl2, 1 mM bME, 23 C (stopped flow 25 C); settings: protein: recombinant;recombinant; tags: ;; copies: 1;1;1;1
T1 sequence (P22336 whole entry, chain 1 of 4): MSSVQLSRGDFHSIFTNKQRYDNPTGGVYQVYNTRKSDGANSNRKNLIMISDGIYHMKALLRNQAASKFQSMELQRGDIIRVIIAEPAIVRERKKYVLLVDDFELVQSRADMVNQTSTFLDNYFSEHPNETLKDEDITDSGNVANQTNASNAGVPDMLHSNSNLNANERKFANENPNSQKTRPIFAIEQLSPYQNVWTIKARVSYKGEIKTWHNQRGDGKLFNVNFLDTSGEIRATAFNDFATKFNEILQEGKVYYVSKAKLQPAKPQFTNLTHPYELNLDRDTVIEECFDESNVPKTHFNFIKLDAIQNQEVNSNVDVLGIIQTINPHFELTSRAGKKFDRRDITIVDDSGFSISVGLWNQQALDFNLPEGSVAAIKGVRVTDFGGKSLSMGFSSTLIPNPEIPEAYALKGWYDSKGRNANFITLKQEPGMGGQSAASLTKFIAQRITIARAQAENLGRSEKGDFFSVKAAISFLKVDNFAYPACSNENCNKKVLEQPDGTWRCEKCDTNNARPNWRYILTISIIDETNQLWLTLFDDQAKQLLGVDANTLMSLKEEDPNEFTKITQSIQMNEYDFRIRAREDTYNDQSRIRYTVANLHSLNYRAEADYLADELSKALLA
T1 sequence (P26754 whole entry, chain 2 of 4): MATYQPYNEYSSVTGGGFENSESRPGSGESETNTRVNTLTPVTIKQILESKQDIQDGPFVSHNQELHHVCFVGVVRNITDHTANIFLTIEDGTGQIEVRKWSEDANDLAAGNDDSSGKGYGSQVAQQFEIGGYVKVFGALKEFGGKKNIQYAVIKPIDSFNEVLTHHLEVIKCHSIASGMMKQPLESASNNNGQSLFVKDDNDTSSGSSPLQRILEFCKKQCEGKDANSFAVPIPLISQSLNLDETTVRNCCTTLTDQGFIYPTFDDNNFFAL
T1 sequence (P26755 whole entry, chain 3 of 4): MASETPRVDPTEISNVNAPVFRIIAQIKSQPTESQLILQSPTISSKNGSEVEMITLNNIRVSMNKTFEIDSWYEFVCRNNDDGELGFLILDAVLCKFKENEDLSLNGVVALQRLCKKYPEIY
T1 sequence (P40063 whole entry, chain 4 of 4): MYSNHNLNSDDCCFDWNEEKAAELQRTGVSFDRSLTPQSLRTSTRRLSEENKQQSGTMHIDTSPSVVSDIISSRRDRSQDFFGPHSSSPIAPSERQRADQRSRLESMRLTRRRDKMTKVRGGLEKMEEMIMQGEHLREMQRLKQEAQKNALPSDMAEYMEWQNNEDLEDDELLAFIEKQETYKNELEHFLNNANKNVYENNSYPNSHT

RPA (RPA70/RPA32/RPA14) [2] = target: T2, RPA (RPA70/RPA32/RPA14) (Saccharomyces cerevisiae, UniProt P22336;P26754;P26755 1-621;1-273;1-122); assay: fluorescence anisotropy; no Rtt105; 5 mM MgCl2; stoichiometric, apparent Kd; EMSA: 25 mM Tris-Cl pH 7.5, 200 mM NaCl, 5 mM MgCl2, 5% glycerol, 0.05% Tween-20, 25 C; anisotropy/FRET: 30 mM HEPES pH 7.8, 100 mM KCl, 6% glycerol, 5 mM MgCl2, 1 mM bME, 23 C (stopped flow 25 C); settings: protein: recombinant; copies: 1;1;1
T2 sequence (P22336 whole entry, chain 1 of 3): as the sequence (P22336 whole entry, chain 1 of 4) above
T2 sequence (P26754 whole entry, chain 2 of 3): as the sequence (P26754 whole entry, chain 2 of 4) above
T2 sequence (P26755 whole entry, chain 3 of 3): as the sequence (P26755 whole entry, chain 3 of 4) above

[3] = target: T3, RPA-DBD-D-Cy3;Rtt105-Cy5 (C13S) (Saccharomyces cerevisiae;Saccharomyces …, UniProt P22336;P26754;P26755;P40063 1-621;1-273;1-122;1-208, |C13S); assay: FRET titration; ssDNA-induced remodeling of preformed RPA-Rtt105 (200 nM each); EMSA: 25 mM Tris-Cl pH 7.5, 200 mM NaCl, 5 mM MgCl2, 5% glycerol, 0.05% Tween-20, 25 C; anisotropy/FRET: 30 mM HEPES pH 7.8, 100 mM KCl, 6% glycerol, 5 mM MgCl2, 1 mM bME, 23 C (stopped flow 25 C); settings: protein: recombinant;recombinant; tags: Cy3 on DBD-D via 4AZP;Cy5 on Cys12; copies: 1;1;1;1
T3 sequence (P22336 whole entry, chain 1 of 4): as the sequence (P22336 whole entry, chain 1 of 4) above
T3 sequence (P26754 whole entry, chain 2 of 4): as the sequence (P26754 whole entry, chain 2 of 4) above
T3 sequence (P26755 whole entry, chain 3 of 4): as the sequence (P26755 whole entry, chain 3 of 4) above
T3 sequence (P40063 whole entry C13S, chain 4 of 4): as the sequence (P40063 whole entry, chain 4 of 4) above, with C13S counted along it

[4] = target: T1, RPA (RPA70/RPA32/RPA14);Rtt105; assay: SEC; [RPA]2-(dT)70 without Rtt105, plus Rtt105-RPA-(dT)70; EMSA: 25 mM Tris-Cl pH 7.5, 200 mM NaCl, 5 mM MgCl2, 5% glycerol, 0.05% Tween-20, 25 C; anisotropy/FRET: 30 mM HEPES pH 7.8, 100 mM KCl, 6% glycerol, 5 mM MgCl2, 1 mM bME, 23 C (stopped flow 25 C); settings: protein: recombinant;recombinant; tags: ;; copies: 1;1;1;1
RPA (RPA70/RPA32/RPA14) [5] = target: T2, RPA (RPA70/RPA32/RPA14); assay: fluorescence anisotropy; ~2 RPA per DNA; EMSA: 25 mM Tris-Cl pH 7.5, 200 mM NaCl, 5 mM MgCl2, 5% glycerol, 0.05% Tween-20, 25 C; anisotropy/FRET: 30 mM HEPES pH 7.8, 100 mM KCl, 6% glycerol, 5 mM MgCl2, 1 mM bME, 23 C (stopped flow 25 C); settings: protein: recombinant; copies: 1;1;1
[6] = target: T3, RPA-DBD-D-Cy3;Rtt105-Cy5 (C13S); assay: FRET titration; ssDNA-induced Rtt105 release from preformed RPA-Rtt105 (200 nM each); EMSA: 25 mM Tris-Cl pH 7.5, 200 mM NaCl, 5 mM MgCl2, 5% glycerol, 0.05% Tween-20, 25 C; anisotropy/FRET: 30 mM HEPES pH 7.8, 100 mM KCl, 6% glycerol, 5 mM MgCl2, 1 mM bME, 23 C (stopped flow 25 C); settings: protein: recombinant;recombinant; tags: Cy3 on DBD-D via 4AZP;Cy5 on Cys12; copies: 1;1;1;1

## TTTTTTTTTTTTTTTTTTTTTTTTTTTTTTTTTTT (ssDNA) [FAM-(dT)35]
[1]
  Kd: 2.4 ± 1.2 nM
RPA (RPA70/RPA32/RPA14) [2]
  Kd: 4 ± 1.3 nM

## TTTTTTTTTTTTTTTTTTTTTTTTTTTTTTTTTTT (ssDNA) [(dT)35]
[3]
  apparent K (half saturation): 130 ± 10.5 nM

B1: (dT)70 (ssDNA)
DNA: TTTTTTTTTTTTTTTTTTTTTTTTTTTTTTTTTTTTTTTTTTTTTTTTTTTTTTTTTTTTTTTTTTTTTT
[4]
  binding result: binds
RPA (RPA70/RPA32/RPA14) [5]
  binding result: binds
[6]
  apparent K (half saturation): 42.8 ± 0.37 nM
